Results from patent US7067473.

Experiments:
[1] = target: recombinant enovin (mature Enovin with NH2-terminal 6x His-tag, expressed from hEVNmat/pRSETB in E. coli BL21(DE3), refolded) (human); assay: SPR (BIAcore 3000, 25 °C), enovin immobilised, soluble GFRα3-Fc as analyte; KD calculated as kd/ka
[2] = target: recombinant enovin (mature Enovin with NH2-terminal 6x His-tag, expressed from hEVNmat/pRSETB in E. coli BL21(DE3), refolded) (human); assay: SPR (BIAcore 3000, 25 °C), enovin immobilised, soluble GFRα3-Fc as analyte, three concentrations

B1: soluble GFRα-3 IgG-Fc fusion protein (GFRα-3 amino acids 28 to 371 fused to human IgG1-Fc) (Fc fusion, UniProt O60609 28-371, looked up, not shown: a dimerising Fc or GST)
chain: LAAGDPLPTESRLMNSCLQARRKCQADPTCSAAYHHLDSCTSSISTPLPSEEPSVPADCLEAAQQLRNSSLIGCMCHRRMKNQVACLDIYWTVHRARSLGNYELDVSPYEDTVTSKPWKMNLSKLNMLKPDSDLCLKFAMLCTLNDKCDRLRKAYGEACSGPHCQRHVCLRQLLTFFEKAAEPHAQGLLLCPCAPNDRGCGERRRNTIAPNCALPPVAPNCLELRRLCFSDPLCRSRLVDFQTHCHPMDILGTCATEQSRCLRAYLGLIGTAMTPNFVSNVNTSVALSCTCRGSGNLQEECEMLEGFFSHNPCLTEAIAAKMRFHSQLFSQDWPHPTFAVMAHQ
Kd [1]: 3.1 nM
koff [2]: 0.000508 s⁻¹
kon [2]: 165000 M⁻¹ s⁻¹
